Measured values from the Immune Epitope Database (IEDB).
Each block holds one sequence with its values, some of them ahead of it.

Experiments:
Experiment in all cases: IEDB peptide-MHC binding, purified MHC/competitive/radioactivity; filed as Kd, often an IC50 or EC50 that approximates it; ≥ and ≤ were set here for values at or beyond the usual limits of such assays
HLA-A*03:01 = biological target: HLA-A*03:01
HLA-A*31:01 = biological target: HLA-A*31:01
HLA-A*11:01 = biological target: HLA-A*11:01
HLA-A*68:01 = biological target: HLA-A*68:01
HLA-A*33:01 = biological target: HLA-A*33:01
[1] = source organism: Vaccinia virus WR
[2] = source organism: Dengue virus 3 Martinique/1243/1999
[3] = source organism: SARS coronavirus Tor2
[4] = source organism: Dengue virus 4 Philippines/H241/1956
[5] = source organism: Mammarenavirus brazilense
[6] = source organism: Dengue virus 1 Brazil/97-11/1997
[7] = source organism: Dengue virus 2 Jamaica/1409/1983
[8] = source organism: Mammarenavirus guanaritoense

Sequence: IIGHIGHHY
Kd (HLA-A*03:01; [1]): 6.39 µM
Kd (HLA-A*31:01; [1]): ≥ 77.9 µM
Kd (HLA-A*11:01; [1]): 4.62 µM
Kd (HLA-A*68:01; [1]): ≥ 23.1 µM
Kd (HLA-A*33:01; [1]): ≥ 77.7 µM

Sequence: IILAALFMY
Kd (HLA-A*03:01; [1]): 0.0205 µM
Kd (HLA-A*31:01; [1]): 11.4 µM
Kd (HLA-A*11:01; [1]): 0.000307 µM
Kd (HLA-A*68:01; [1]): ≥ 55.7 µM
Kd (HLA-A*33:01; [1]): 13.3 µM

Sequence: ILFEEVMRGK
Kd (HLA-A*03:01; [2]): 0.00896 µM

Sequence: ITKEIKNRDK
Kd (HLA-A*03:01; [1]): 7.89 µM
Kd (HLA-A*31:01; [1]): ≥ 10 µM
Kd (HLA-A*11:01; [1]): 18.4 µM
Kd (HLA-A*68:01; [1]): 2.21 µM
Kd (HLA-A*33:01; [1]): ≥ 35.8 µM

Sequence: IVPFWITAIY
Kd (HLA-A*03:01; [3]): 0.071 µM
Kd (HLA-A*31:01; [3]): 1.32 µM
Kd (HLA-A*11:01; [3]): 1.02 µM
Kd (HLA-A*68:01; [3]): 0.178 µM
Kd (HLA-A*33:01; [3]): 2.36 µM

Sequence: KIKQDVRDK
Kd (HLA-A*03:01; [1]): 0.241 µM
Kd (HLA-A*31:01; [1]): 9.94 µM
Kd (HLA-A*11:01; [1]): 19.8 µM
Kd (HLA-A*68:01; [1]): ≥ 24.9 µM
Kd (HLA-A*33:01; [1]): ≥ 77.7 µM

Sequence: KKKNPRLCTR
Kd (HLA-A*31:01; [4]): 1.04 µM

Sequence: KMAVEVGSIR
Kd (HLA-A*03:01; [1]): 4.54 µM
Kd (HLA-A*31:01; [1]): 1.67 µM
Kd (HLA-A*11:01; [1]): ≥ 21.1 µM
Kd (HLA-A*68:01; [1]): 0.0958 µM
Kd (HLA-A*33:01; [1]): 13.7 µM

Sequence: KTNSTVDVR
Kd (HLA-A*03:01; [1]): 1.88 µM
Kd (HLA-A*31:01; [1]): 0.011 µM
Kd (HLA-A*11:01; [1]): 0.0881 µM
Kd (HLA-A*68:01; [1]): 0.0199 µM
Kd (HLA-A*33:01; [1]): 13.3 µM

Sequence: KVLAARLKR
Kd (HLA-A*03:01; [1]): 0.633 µM
Kd (HLA-A*31:01; [1]): 0.663 µM
Kd (HLA-A*11:01; [1]): 0.158 µM
Kd (HLA-A*68:01; [1]): 0.00607 µM
Kd (HLA-A*33:01; [1]): 18.8 µM

Sequence: LFFTTTLFLH
Kd (HLA-A*03:01; [5]): 0.771 µM
Kd (HLA-A*31:01; [5]): 0.232 µM
Kd (HLA-A*11:01; [5]): 4.12 µM
Kd (HLA-A*68:01; [5]): 0.445 µM
Kd (HLA-A*33:01; [5]): 0.191 µM

Sequence: LIHDNIMYTY
Kd (HLA-A*03:01; [1]): 0.0453 µM
Kd (HLA-A*31:01; [1]): 4.16 µM
Kd (HLA-A*11:01; [1]): 0.238 µM
Kd (HLA-A*68:01; [1]): 0.566 µM
Kd (HLA-A*33:01; [1]): ≥ 32.3 µM

Sequence: LILAEYIRHR
Kd (HLA-A*03:01; [1]): 2.19 µM
Kd (HLA-A*31:01; [1]): 0.0804 µM
Kd (HLA-A*11:01; [1]): 0.738 µM
Kd (HLA-A*68:01; [1]): 1.73 µM
Kd (HLA-A*33:01; [1]): 5.39 µM

Sequence: LLSINSSFY
Kd (HLA-A*03:01; [1]): 0.986 µM
Kd (HLA-A*31:01; [1]): 2.39 µM
Kd (HLA-A*11:01; [1]): 0.479 µM
Kd (HLA-A*68:01; [1]): 3.46 µM
Kd (HLA-A*33:01; [1]): 6.34 µM

Sequence: LLYAAEMVEY
Kd (HLA-A*03:01; [1]): 0.00393 µM
Kd (HLA-A*31:01; [1]): 0.236 µM
Kd (HLA-A*11:01; [1]): 0.000576 µM
Kd (HLA-A*68:01; [1]): 0.00935 µM
Kd (HLA-A*33:01; [1]): 17.1 µM

Sequence: LMIVARHER
Kd (HLA-A*31:01; [4]): 0.00518 µM
Kd (HLA-A*33:01; [4]): 0.116 µM

Sequence: LMPILTLTR
Kd (HLA-A*03:01; [3]): 0.102 µM
Kd (HLA-A*31:01; [3]): 0.723 µM
Kd (HLA-A*11:01; [3]): 1.13 µM
Kd (HLA-A*68:01; [3]): 1.72 µM
Kd (HLA-A*33:01; [3]): 15 µM

Sequence: LSFSNTIQSY
Kd (HLA-A*03:01; [1]): 7.43 µM
Kd (HLA-A*31:01; [1]): ≥ 70 µM
Kd (HLA-A*11:01; [1]): 1.37 µM
Kd (HLA-A*68:01; [1]): 4.67 µM
Kd (HLA-A*33:01; [1]): ≥ 70 µM

Sequence: LSKWHTSAR
Kd (HLA-A*03:01; [1]): 5.83 µM
Kd (HLA-A*31:01; [1]): 0.00134 µM
Kd (HLA-A*11:01; [1]): 3.43 µM
Kd (HLA-A*68:01; [1]): 0.0207 µM
Kd (HLA-A*33:01; [1]): 0.0153 µM

Sequence: LTDTEYRAR
Kd (HLA-A*03:01; [1]): ≥ 78 µM
Kd (HLA-A*31:01; [1]): ≥ 77.9 µM
Kd (HLA-A*11:01; [1]): ≥ 53.9 µM
Kd (HLA-A*68:01; [1]): ≥ 42.6 µM
Kd (HLA-A*33:01; [1]): ≥ 77.7 µM

Sequence: MFAVGLLFRR
Kd (HLA-A*31:01; [6]): 19 µM
Kd (HLA-A*68:01; [6]): 0.0618 µM
Kd (HLA-A*33:01; [6]): 0.00166 µM

Sequence: MLPPCYNFLK
Kd (HLA-A*03:01; [3]): 0.00677 µM
Kd (HLA-A*31:01; [3]): 0.129 µM
Kd (HLA-A*11:01; [3]): 0.00953 µM
Kd (HLA-A*68:01; [3]): 0.00261 µM
Kd (HLA-A*33:01; [3]): 0.138 µM

Sequence: MVGANASDR
Kd (HLA-A*68:01; source organism: Dengue virus 1 Singapore/S275/1990): 0.0455 µM

Sequence: MVLLQMEDK
Kd (HLA-A*11:01; [7]): 2.01 µM

Sequence: NIPTAIQQVR
Kd (HLA-A*68:01; [2]): 0.0724 µM

Sequence: NLEMIDERKY
Kd (HLA-A*03:01; [1]): ≥ 70.1 µM
Kd (HLA-A*31:01; [1]): ≥ 24.2 µM
Kd (HLA-A*11:01; [1]): ≥ 69.8 µM
Kd (HLA-A*68:01; [1]): ≥ 21.4 µM
Kd (HLA-A*33:01; [1]): ≥ 70 µM

Sequence: NLTETFRDY
Kd (HLA-A*03:01; [1]): ≥ 78 µM
Kd (HLA-A*31:01; [1]): ≥ 77.9 µM
Kd (HLA-A*11:01; [1]): ≥ 77.9 µM
Kd (HLA-A*68:01; [1]): ≥ 37.4 µM
Kd (HLA-A*33:01; [1]): ≥ 77.7 µM

Sequence: NMKQCTNDIY
Kd (HLA-A*03:01; [1]): 0.211 µM
Kd (HLA-A*31:01; [1]): ≥ 57.4 µM
Kd (HLA-A*11:01; [1]): 16.4 µM
Kd (HLA-A*68:01; [1]): 2.78 µM
Kd (HLA-A*33:01; [1]): ≥ 65.7 µM

Sequence: NVAYNVVNK
Kd (HLA-A*03:01; [3]): 0.469 µM
Kd (HLA-A*31:01; [3]): 7.17 µM
Kd (HLA-A*11:01; [3]): 0.121 µM
Kd (HLA-A*68:01; [3]): 0.0308 µM
Kd (HLA-A*33:01; [3]): 19.3 µM

Sequence: NYKERMVTFK
Kd (HLA-A*33:01; [4]): 1.4 µM

Sequence: PFTQHLLNIR
Kd (HLA-A*03:01; [1]): ≥ 22.3 µM
Kd (HLA-A*31:01; [1]): 0.167 µM
Kd (HLA-A*11:01; [1]): 2.89 µM
Kd (HLA-A*68:01; [1]): 0.224 µM
Kd (HLA-A*33:01; [1]): 6.51 µM

Sequence: PIYSHTERDK
Kd (HLA-A*03:01; [1]): 0.932 µM
Kd (HLA-A*31:01; [1]): 0.977 µM
Kd (HLA-A*11:01; [1]): 6.59 µM
Kd (HLA-A*68:01; [1]): 14 µM
Kd (HLA-A*33:01; [1]): ≥ 54.6 µM

Sequence: PLFHGGEPIK
Kd (HLA-A*03:01; [1]): 18.3 µM
Kd (HLA-A*31:01; [1]): ≥ 70 µM
Kd (HLA-A*11:01; [1]): ≥ 28.7 µM
Kd (HLA-A*68:01; [1]): ≥ 70.2 µM
Kd (HLA-A*33:01; [1]): ≥ 70 µM

Kd (HLA-A*03:01; source organism: Homo sapiens): 0.055 µM
Sequence: QLRSLTEILK

Sequence: QQLEDIFMR
Kd (HLA-A*03:01; [1]): 2.71 µM
Kd (HLA-A*31:01; [1]): 1.19 µM
Kd (HLA-A*11:01; [1]): 13.4 µM
Kd (HLA-A*68:01; [1]): 5.48 µM
Kd (HLA-A*33:01; [1]): 4.07 µM

Sequence: QSVLCVKKFY
Kd (HLA-A*03:01; [1]): 1.37 µM
Kd (HLA-A*31:01; [1]): 15.6 µM
Kd (HLA-A*11:01; [1]): 13.2 µM
Kd (HLA-A*68:01; [1]): 5.67 µM
Kd (HLA-A*33:01; [1]): ≥ 24.5 µM

Sequence: TKTAVNMLTH
Kd (HLA-A*31:01; [8]): 7.55 µM
Kd (HLA-A*68:01; [8]): 0.87 µM
Kd (HLA-A*33:01; [8]): ≥ 35.7 µM

Sequence: TLLVWHTWQK
Kd (HLA-A*03:01; [2]): 0.0455 µM

Sequence: TTLSRTSKK
Kd (HLA-A*03:01; [7]): 0.0143 µM
Kd (HLA-A*11:01; [7]): 0.158 µM
Kd (HLA-A*68:01; [7]): 0.302 µM

Sequence: TTTIFAGHLK
Kd (HLA-A*11:01; [6]): 0.0227 µM
Kd (HLA-A*68:01; [6]): 0.00888 µM

Sequence: VAAEMEEALR
Kd (HLA-A*68:01; [7]): 0.128 µM

Sequence: VTFKNAHAK
Kd (HLA-A*03:01; [2]): 0.00794 µM
Kd (HLA-A*11:01; [2]): 0.0584 µM
Kd (HLA-A*68:01; [2]): 0.0584 µM

Sequence: WSYYCAGLK
Kd (HLA-A*03:01; [6]): 0.0122 µM

Sequence: YVSAITQAER
Kd (HLA-A*31:01; [4]): 0.104 µM
Kd (HLA-A*68:01; [4]): 0.0143 µM
